Experimental findings from the DeepSol protein solubility set are described below.

This data set can be described thus: soluble on expression in E. coli; label from the status in PepcDB or PDB records.
For “MTATATEGAKPPFVSRSVLVTGGNRGIGLAIAQRLAADGHKVAVTHRGSGAPKGLFGVEVDVTDSDAVDRAFTAVEEHQGPVEVLVSNAGLSADAFLMRMTEEKFEKVINANLTGAFRVAQRASRSMQRNKFGRMIFIGSVSGLWGIGNQANYAASKAGVIGMARSIARELSKANVTANVVAPGYIDTDMTRALDERIQQGALQFIPAKRVGTPAEVAGVVSFLASEDASYISGAVIPVDGGMGMGH”, the “soluble on expression in E. coli” value is on record as “soluble”.

As to “MTATLDDARAALDRIADPASGQGLVKAGLVQGLVVRNGRAGFMLEVPASVVASYAPVREAAEKALAALPGVEQAQVVLTAQAAEGATRVRKGAKISEDPQARMVPPPEAEKPQHVRHVIAVASGKGGVGKSTVSTNLAVAFAKMGLRVGLLDADIYGPSAPKMMGVDGDPLFENEKLQPLEAHGVKLMSIGFIVDEGKAMIWRGPMASSAVRQMIHDVAWGSEAQPLDVLVVDLPPGTGDVQLTLVQKLRIDGAVLVTTPQEIALIDARRAAAMFEKTATPILGLIENMAFFADPSTGAPIPIFGEGGGVAEAARLNVPLLGRVPIEIAVRLGGDQGVPAVIGEPKGQAAEVFIGAAKVLWKSVSHLEHHHHHH”, the “soluble on expression in E. coli” value was “soluble”. The entry for “MTATNKQVILKDYVSGFPTESDFDFTTTTVELRVPEGTNSVLVKNLYLSCDPYMRIRMGKPDPSTAALAQAYTPGQPIQGYGVSRIIESGHPDYKKGDLLWGIVAWEEYSVITPMTHAHFKIQHTDVPLSYYTGLLGMPGMTAYAGFYEVCSPKEGETVYVSAASGAVGQLVGQLAKMMGCYVVGSAGSKEKVDLLKTKFGFDDAFNYKEESDLTAALKRCFPNGIDIYFENVGGKMLDAVLVNMNMHGRIAVCGMISQYNLENQEGVHNLSNIIYKRIRIQGFVVSDFYDKYSKFLEFVLPHIREGKITYVEDVADGLEKAPEALVGLFHGKNVGKQVVVVARE” is “soluble”; for “MTDAGSSFCPECGDPVDSVGGDGATRREQSLCDSCYFAAFDLVDAPDTIEVMVCARCGAVHRGNRWVDIGADDYVDVAVAETTEALGVHLEAEDVDWEVRPEKLDDNTVRMHATFTGVVRDTHRTEQVAVTVKVSRQTCQRCGRIAGESYASTVQVRAVGRDPTSEETDRAAELAHRIVADMEATGDREAFVTEIGDAESGTDIKLSTTKIGLKLARKLVEEFGGDFEDHETLITEDDDGNEVYRVTYAVRLPEFVPGDVVDIAADDGGPVLVQSNHGNLKGVRVTTGEPYEASFEDGDSPDARKLGAVADATEATVVTVEDDAAIQILDPDTYEAQTVARPDYVDPDASTVPALKSRAGLHVLPDALEHHHHHH” it is “soluble”. With “MTDALGELEADVRADLAMIAHPGAAWLEPKIGPDGKPALDVLVVGAGQSGIAIGFGLMRSRVSNILLLDKAEEGKEGPWLTYARMPTLRSPKDYTGPDLDIPSLTYQSWHEARFGKQSWQELGLIERGHWAEYLLWLRRTVGLPVRNACELLEIAPASDGLLTARVKRAGEVETLYARKIVLATGQEGMGGWMIPEPLRHLPSGSVATVADDIDFEKLRGKRVAVIGAGASAFDNAATALEAGAAEVHLLCRRTQIQVIQPYRWLTFRGFLRHLSDLDDAWRWRFMRTILEMREGFPQATYDRCARHANFTLHEGAPVEAARETGKGVELQTPRGAIPADFVICGTGIDMSFAGRGELAAFAGNIATWADRYQPPSSERNERLGRFPYLADDYAFTERVPGETPWISDIHLFAIASTMSFGPSGSSINAMTTAVPKLVHGLTRGLFRADIARHWASLSAYDVPQAVVTRPARKTGELEHHHHHH”, the “soluble on expression in E. coli” value is “soluble”. The entry for “MTDFQKQFFARLNIEEKQKVSFEDLSNIMYAMAQTVPFENLNVLEKNFKEISQENLKEKILVNNRGGLCYELNPTMYYFLKDAGFDVYLVSGTVYNAANSIWAVDSGHIATILKHHNELYLIEVGFGSYLPLAPVPFSGEVVQSVTGDYRIRKEMTEKGNYMLEMRKNDEFLDQSSTDDWTLGYAFYIEEVDEKKQMQHKKLLLNTMAHHLTKYLLL” is “not soluble”. The entry for “MTDGSMDIDAMLEGGLEMAKNDRSQSRQRSPARSNRSRSRSKDRKSSSRRSRSRSRDRRGDRGDRRRSRSRSKDRRTTRRRSPSRERRRSRSRDRGAPRRRSRTRSRDRRRSPPRRRDRRTPPRRSPGRRSPPRSRLPGPERRDVMPFNPRHSPPKNAKLELTAEERDQRTLLIMQIARDTRPRDLEEFFSAVGAVRDVRIITDSRTGRSKGICYVEFWDEESVPLGLALNGQRLMGAPLQIQRTCAERNRAANSSVASTLGFVAPGNKGPTHVLVENLHPKIDEKMIRDIFESFGRIEKIDLEVDSNRENRGFATITFRNADDAQKSCEQLNNFELAGRCIRLSIKQESQAPAVKKEEASIHQRSLDDVGDRQGFSLGAGGRQQLMAKLAQGTGSGMELTASAQMAAQHAGHSQIPSIATQCFLLSNMFDPSKETEPAWDHDIREDVIEQCLAHGGALHVFVDKGSEQGNVYVKCPSIVIAHQAVSALHGRWFSGKVITANYVPVNSYHDLFPDAVHARIVLTTRGAAPVVPIVPMVPVVPPQGIANGYGAYGMMAPAHGAPPPPPPQQQGQYGGYGRY” is “not soluble”; for “MTDHNLLPEPKKILWRVSELNRNARVILEQTFPLLWVSGEISNLKRYPSGHWYFSLKDDSAQVRCVMFRHKNLYLDWIPQEGMQVEAQALVTLYEARGEFQLTVEQLRRAGLGALFEAFERLKARLQQEGLFSPEYKQPLPRFPRQIGIITSPNTAALRDVLTTLQLRLPSIPVVIYPAPVQGEGSAAAITTALHTAAVRGECDVLILCRGGGSIEDLWAFNEEIVARAIAACPIPIVTGIGHETDFTIADFVADARAPTPTGAAQLASPDRQAILHRLQYWLHRLQQTMERHIERRMQATDLLAHRLIHPGERIRHQQMHLLQLRGRLQNAWNRQVEIRTWRIEETGRRIHSAKPDIQAGIRHQQELAARLQRAMAHRLENLQFKLRQQQQHLIHLDPKAVLARGYSIAYTARGDILHDSRQTRAGDNVRLVFASGWAKADITETGE” it is “not soluble”; for “MTDILIDNTATETVRTLIRAFPLVPVSQPPEQGSYLLAEHDTVSLRLVGEKSSVIVDFASGAAQYRRTKGGGELIAKAVNHTAHPTVWDATAGLGRDSFVLASLGLAVTAFEQHPAVACLLSDGIRRALLNPETQNTAAHINLHFGNAAEQMPALVQTQGKPDIVYLDPMYPERRKSAAVKKEMTYFHRLVGEAQDEAALLHTARQTAKKRVVVKRPRLGEHLAGQDPAYQYTGKSTRFDVYLPYGTDKG” it is “not soluble”. The entry for “MTDKQYSLDDIRLRLNELDDQLLNLLSERRKMSIEVAKSKVETAKPVRDPAREQQLLVKLINAGKEKYQLDPQYITKIFHTIIEDSVLLQQSYLQNLANPQSRKPLARVAFLGAKGSYSHLATREYFSRKNTELIELNCDHFKEVARTVESGHADYGVLPIENTSSGSINEVYDLLQHTTLYIVGELTQPIEHCLVATQEIRLEDLKVLYSHPQPHQQCSEFLSRLKGVKLESCASTADAMKKVQELNRADVAAIGNSASGKLYGLQPIQGNIANQTENHTRFIVVARKPVDVSPQIPAKTTLIMSTSQEAGSLVSTLLVLQRYGINMTKLESRPIMGNPWEEMFYVDLEAHIDSDEMQQALAELTQLTRHLKVLGCYPSENVKPTQVKFI” is “not soluble”; for “MTDLQVFEMNPQLNFPISDKTIYQMGFNSSAAQPSAANYVTESNSLTNHLQILDLLNPQTSSGSDDKKRQFFADLMTPHYEKQAEIEKKIDDLSEVVHQFIQSQQSLNKLILEKCLGRIPSPRMTSPHQPEDNSIDDMDPPVQEEIEEKIENDTFGQNEVTVNQQPINNPMPVYPVPISHEPANLHSPIRNRSISPEKMDTTGNSGAGMSVRDFLKNTMTVQKADEKILEEELERERDEAAQTVRYNKFRVRNRPKKYKRSAVTFTSSLEAATSSSSSTIPHQDQGPTFSTHSTIGNSSDTSQLMEQLDQSQNDSIDIEENVYQPIVVPCVQRAPELDLTLMQPVFSTASSYVLNSSALDPTTHQAQSSLSALTDSKFQTDPNNLWKAVDGVSQLLVDAPSLLESDLRSFTDHSHHSSFLPFVANHEPLHRSAFLPPQYHKDRRIHQQMDSHLSDTLRNL” it is “not soluble”. As to “MTDMKVLKMEVMRYNPERDSEPHFETFEVPYDEQTSLLDALGYIKDNLAPDLSYRWSCRMAICGSCGMMVNKVPKLACKTFLREYTAGMKVEALGNFPIERDLVVDMTHFIESLEAIKPYIIGNERLPKDGPNKQTPAQMAKYHQFSGCINCGLCYAACPQFGLNPEFIGPAAITLAHRYNLDNRDHGKKERMPQLNGKNGVWSCTFVGYCSEVCPKHVDPAAAIQQGKIDSAKDFMIAMLKPQ”, the “soluble on expression in E. coli” value is “not soluble”. For “MTDNQSKSLELILTDSDDAHMLLGTHDKHIKFLEENTHVTINSRGEVIQLIGESSEVELVASVLRALQTLIQRGIKVHTPDVVSALKMAKAGNLEAFIAMYEEEIMKDHHGRAIRIKNVGQKKYIDAVKTHDVIFGVGPAGTGKTFLAVVMAVAALKKGEVQKIILTRPAVEAGESLGFLPGDLKEKVDPYLRPVYDALYQIFGMDHTNRLMERGVIEIAPLAYMRGRTLDDAFVILDEAQNTTVAQMKMFLTRLGFSSKMIVNGDTSQIDLPRGVTSGLVNAERTLKDIEKIAFVNFEASDVVRHPVVAQIIQAYEKEQQKHS” the value was “not soluble”; for “MTDRLIIQGGKKLSGTLQVDGAKNSAVALIPAAILAESEVVLEGLPDISDVYTLYDILEELGGSVRYDNKTAIIDPTDMLSMPLPSGNVKKLRASYYLMGAMLGRFKKAVIGLPGGCYLGPRPIDQHIKGFEALGAKVTNEQGAIYLRADELKGARIYLDVVSVGATINIMLAAVRAKGKTVIENAAKEPEIIDVATLLTNMGAIIKGAGTDTIRITGVDHLHGCHHTIIPDRIEAGTFMVLAAASGKGIRIENVIPTHLEGIIAKLTEMGVPMDIEEDSIFIGEVENIKKVDIKTYAYPGFPTDLQQPLTALLTRAEGSSVITDTIYPSRFKHIAELERMGGKFKLEGRSAVISGPAKLQGSKVTATDLRAGAALVIAGLLAEGRTEIHGVEHIERGYSKIIEKLSAIGADITRSSTAETNI”, “not soluble”; for “MTDTAEKYEAVVVGCGPGGAAAAATLARNGVETLVLERGVDAGSKNVSGGLIYAEESAPYTIDGLFPDFREEAAERPVTENLIHNIAGDRVKSFDIGDLHHHDTAWADAVLRRKMDSWLAQQVHERTRETGGGLLTEVHVTGLLRERGEIVGVTTEELDPIKADIIVAADGVNSELARDAGLMDWDEPEEWFQGVKAVVDMEPEVINDRFDVASDDGAAHLFSGDLFDGVRGGGFLYTNESSLSIGTVFHLDSIAEERAEPHELLDSLLTHPLMAQWLGDEYDEREYSAKLVPDSKKAAHPSPHEDRLVLVGDAAGQMQAQGPIIKGMNHAVTAGALAAEAFADARARGDPSQAGKLYEKKLHDEGVMDKLRPTGYRVFGQLGELGPVDNLSNAIAESAVGRFGVRAAAGLLERAYSSPRLVSMIPDTKLPYVTLPTVIAEELGEPVTDENTVSPPDLGDRIGDLTYDVGDPHIELVDKSFEASGTAVTACPVSAEDFGGGCYRDEMVQTNGSEEHLVSLDTQPCVECGTCAIVADTEWEHPAGGKGVEFNQGLEHHHHHH”, “not soluble”.

With “MTDTIKIYHNPRCSKSRDTLNLLKSNGVEPEVVLYLDTPADAATVRELLRMLGMSSARELMRQKEDLYKTLHLADSELSEEALIQALVEHPKLMERPIVVANGQARIGRPPEQVLDILG”, the “soluble on expression in E. coli” value is given as “not soluble”. In the case of “MTDTQVTWLTQESHDRLKAELDQLIANRPVIAAEINDRREEGDLRENGGYHAAREEQGQQEARIRQLQDLLSNAKVGEAPKQSGVALPGSVVKVYYNGDKSDSETFLIATRQEGVSDGKLEVYSPNSPLGGALIDAKVGETRSYTVPNGSTVSVTLVSAEPYHS”, the “soluble on expression in E. coli” value is listed as “soluble”.
